The numbers were not newly measured in paper PMC11533685, which cites them from elsewhere.

Data set [1] concerns the target CD200R ECD (UniProt Q8TD46). The data set can be described thus: SPR. A general note: Surface plasmon resonance follows binding to a sensor surface in real time, without labels.
The target of data set [2] is CD58 ECD (Homo sapiens) (UniProt P19256). The data set can be described thus: SPR.
Chain of UniProt P19256 (P19256 29-215): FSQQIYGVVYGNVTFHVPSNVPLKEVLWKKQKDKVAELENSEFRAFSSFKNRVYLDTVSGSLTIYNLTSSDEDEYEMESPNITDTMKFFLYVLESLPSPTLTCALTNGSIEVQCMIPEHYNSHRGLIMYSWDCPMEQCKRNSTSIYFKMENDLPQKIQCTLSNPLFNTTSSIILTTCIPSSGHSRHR

Chain of UniProt Q8TD46 (Q8TD46 25-265): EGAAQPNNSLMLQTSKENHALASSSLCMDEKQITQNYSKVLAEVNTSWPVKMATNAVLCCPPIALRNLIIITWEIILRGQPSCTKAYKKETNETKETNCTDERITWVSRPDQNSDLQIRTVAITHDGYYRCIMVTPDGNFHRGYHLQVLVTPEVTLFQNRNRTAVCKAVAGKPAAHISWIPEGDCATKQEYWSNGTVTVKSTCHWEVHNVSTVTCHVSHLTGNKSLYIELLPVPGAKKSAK

What is called Kd is the constant that tells how readily two partners part at equilibrium. In the case of CD200 ECD (from UniProt P41217), in data set [1], the Kd is 1 µM.
CD2 ECD (from UniProt P06729): the dissociation constant (Kd) in data set [2] was 10 µM.
